In US20190343963A1:

Experiments:
IL-13 (human) [1] = molecular target: IL-13 (human) (UniProt P35225); test: competition ELISA; 1 h incubation
IL-13 (human) [2] = molecular target: IL-13 (human) (UniProt P35225); test: competition ELISA; 24 h incubation
IL-13 (human) [3] = molecular target: IL-13 (human) (UniProt P35225); test: competition ELISA; 1 h incubation; remark: listed apart in the source
IL-13 (human) [4] = molecular target: IL-13 (human) (UniProt P35225); test: competition ELISA; 24 h incubation; remark: listed apart in the source

IL-13 (human), sequence (P35225 35-146): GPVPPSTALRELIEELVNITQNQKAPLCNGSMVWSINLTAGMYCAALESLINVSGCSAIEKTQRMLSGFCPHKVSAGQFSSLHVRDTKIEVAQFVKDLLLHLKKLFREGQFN

CAT-354 fab
EC50 (IL-13 (human) [1]; Fab): 3.56 nM
EC50 (IL-13 (human) [2]; Fab): 4 nM

CAT-354
EC50 (IL-13 (human) [3]): 0.25 nM
EC50 (IL-13 (human) [1]): 2.1 nM
EC50 (IL-13 (human) [2]): 0.54 nM
EC50 (IL-13 (human) [4]): 2.28 nM
